Experimental data from US20180155451A1 (published 2018).

T1: FcγRIIa R (extracellular domain with a His tag at the C terminus) (human, UniProt P12318 34-217)
T1 construct: extracellular domain; expressed in FreeStyle293 cells; also called FcgRIIa R; FcγRIIa type R; not shown: His tag at the C terminus
T1 sequence (looked up): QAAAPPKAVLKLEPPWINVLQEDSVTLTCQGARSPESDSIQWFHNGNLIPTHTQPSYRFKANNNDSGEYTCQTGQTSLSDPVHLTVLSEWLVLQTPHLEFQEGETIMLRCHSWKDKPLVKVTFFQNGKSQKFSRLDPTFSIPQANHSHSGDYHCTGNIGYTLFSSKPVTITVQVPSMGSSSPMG

B1: GpH7-A5/GpH7-B3 variant K326_08L/GpL16-k0 (antibody, human IgG1, kappa)
heavy 1: not shown
heavy 2: not shown
light: DIVMTQSPLSLPVTPGEPASISCQASESLVHSNRNTYLHWYLQKPGQSPQLLIYKVSNRFSGVPDRFSGSGSGTDFTLKISRVEAEDVGVYYCSQNTHVPPTFGQGTKVEIERTVAAPSVFIFPPSDEQLKSGTASVVCLLNNFYPREAKVQWKVDNALQSGNSQESVTEQDSKDSTYSLSSTLTLSKADYEKHKVYACEVTHQGLSSPVTKSFNRGEC
notes: heterodimerized; mutation in one H chain; also called He Ab
B2: GpH7-A5/GpH7-B3 variant K326_20W/GpL16-k0 (antibody, human IgG1, kappa)
heavy 1: not shown
heavy 2: not shown
light: B1 light
notes: as for B1
B3: GpH7-A5/GpH7-B3 variant K334_05P/GpL16-k0 (antibody, human IgG1, kappa)
heavy 1: not shown
heavy 2: not shown
light: B1 light
notes: as for B1
B4: GpH7-A5/GpH7-B3 variant P331_16H/GpL16-k0 (antibody, human IgG1, kappa)
heavy 1: not shown
heavy 2: not shown
light: B1 light
notes: as for B1
B5: GpH7-A5/GpH7-B3 variant K334_08L/GpL16-k0 (antibody, human IgG1, kappa)
heavy 1: not shown
heavy 2: not shown
light: B1 light
notes: as for B1
B6: GpH7-A5/GpH7-B3 variant P331_20W/GpL16-k0 (antibody, human IgG1, kappa)
heavy 1: not shown
heavy 2: not shown
light: B1 light
notes: as for B1
B7: GpH7-A5/GpH7-B3 variant P238_04F/GpL16-k0 (antibody, human IgG1, kappa)
heavy 1: not shown
heavy 2: not shown
light: B1 light
notes: as for B1
B8: GpH7-A5/GpH7-B3 variant S239_10E/GpL16-k0 (antibody, human IgG1, kappa)
heavy 1: not shown
heavy 2: not shown
light: B1 light
notes: as for B1
B9: GpH7-A5/GpH7-B3 variant P331_02A/GpL16-k0 (antibody, human IgG1, kappa)
heavy 1: not shown
heavy 2: not shown
light: B1 light
notes: as for B1
B10: GpH7-A5/GpH7-B3 variant S239_08L/GpL16-k0 (antibody, human IgG1, kappa)
heavy 1: not shown
heavy 2: not shown
light: B1 light
notes: as for B1
B11: GpH7-A5/GpH7-B3 variant P331_04F/GpL16-k0 (antibody, human IgG1, kappa)
heavy 1: not shown
heavy 2: not shown
light: B1 light
notes: as for B1
B12: GpH7-A5/GpH7-B3 variant K334_10E/GpL16-k0 (antibody, human IgG1, kappa)
heavy 1: not shown
heavy 2: not shown
light: B1 light
notes: as for B1
B13: GpH7-A5/GpH7-B3 variant P238_03V/GpL16-k0 (antibody, human IgG1, kappa)
heavy 1: not shown
heavy 2: not shown
light: B1 light
notes: as for B1
B14: GpH7-A5/GpH7-B3 variant K334_04F/GpL16-k0 (antibody, human IgG1, kappa)
heavy 1: not shown
heavy 2: not shown
light: B1 light
notes: as for B1
B15: GpH7-A5/GpH7-B3 variant K334_19Q/GpL16-k0 (antibody, human IgG1, kappa)
heavy 1: not shown
heavy 2: not shown
light: B1 light
notes: as for B1
B16: GpH7-A5/GpH7-B3 variant P331_15Y/GpL16-k0 (antibody, human IgG1, kappa)
heavy 1: not shown
heavy 2: not shown
light: B1 light
notes: as for B1
B17: GpH7-A5/GpH7-B3 variant L235_20W/GpL16-k0 (antibody, human IgG1, kappa)
heavy 1: not shown
heavy 2: not shown
light: B1 light
notes: as for B1
B18: GpH7-A5/GpH7-B3 variant K326_15Y/GpL16-k0 (antibody, human IgG1, kappa)
heavy 1: not shown
heavy 2: not shown
light: B1 light
notes: as for B1
B19: GpH7-A5/GpH7-B3 variant L328_14T/GpL16-k0 (antibody, human IgG1, kappa)
heavy 1: not shown
heavy 2: not shown
light: B1 light
notes: as for B1
B20: GpH7-A5/GpH7-B3 variant L328_13S/GpL16-k0 (antibody, human IgG1, kappa)
heavy 1: not shown
heavy 2: not shown
light: B1 light
notes: as for B1
B21: GpH7-A5/GpH7-B3 variant K334_02A/GpL16-k0 (antibody, human IgG1, kappa)
heavy 1: not shown
heavy 2: not shown
light: B1 light
notes: as for B1
B22: GpH7-A5/GpH7-B3 variant P271_08L/GpL16-k0 (antibody, human IgG1, kappa)
heavy 1: not shown
heavy 2: not shown
light: B1 light
notes: as for B1
B23: GpH7-A5/GpH7-B3 variant K334_13S/GpL16-k0 (antibody, human IgG1, kappa)
heavy 1: not shown
heavy 2: not shown
light: B1 light
notes: as for B1

Target: T1, FcγRIIa R (extracellular domain with a …)
Test: SPR Biacore, relative binding

Row | Binder | He/Con_2aR
1 | B1 | 137 % of GpH7-A5/GpH7-B3/GpL16-k0 (=100)
2 | B2 | 131 % of GpH7-A5/GpH7-B3/GpL16-k0 (=100)
3 | B3 | 103 % of GpH7-A5/GpH7-B3/GpL16-k0 (=100)
4 | B4 | 114 % of GpH7-A5/GpH7-B3/GpL16-k0 (=100)
5 | B5 | 106 % of GpH7-A5/GpH7-B3/GpL16-k0 (=100)
6 | B6 | 110 % of GpH7-A5/GpH7-B3/GpL16-k0 (=100)
7 | B7 | 174 % of GpH7-A5/GpH7-B3/GpL16-k0 (=100)
8 | B8 | 135 % of GpH7-A5/GpH7-B3/GpL16-k0 (=100)
9 | B9 | 106 % of GpH7-A5/GpH7-B3/GpL16-k0 (=100)
10 | B10 | 122 % of GpH7-A5/GpH7-B3/GpL16-k0 (=100)
11 | B11 | 111 % of GpH7-A5/GpH7-B3/GpL16-k0 (=100)
12 | B12 | 106 % of GpH7-A5/GpH7-B3/GpL16-k0 (=100)
13 | B13 | 120 % of GpH7-A5/GpH7-B3/GpL16-k0 (=100)
14 | B14 | 110 % of GpH7-A5/GpH7-B3/GpL16-k0 (=100)
15 | B15 | 109 % of GpH7-A5/GpH7-B3/GpL16-k0 (=100)
16 | B16 | 112 % of GpH7-A5/GpH7-B3/GpL16-k0 (=100)
17 | B17 | 131 % of GpH7-A5/GpH7-B3/GpL16-k0 (=100)
18 | B18 | 136 % of GpH7-A5/GpH7-B3/GpL16-k0 (=100)
19 | B19 | 119 % of GpH7-A5/GpH7-B3/GpL16-k0 (=100)
20 | B20 | 117 % of GpH7-A5/GpH7-B3/GpL16-k0 (=100)
21 | B21 | 105 % of GpH7-A5/GpH7-B3/GpL16-k0 (=100)
22 | B22 | 104 % of GpH7-A5/GpH7-B3/GpL16-k0 (=100)
23 | B23 | 109 % of GpH7-A5/GpH7-B3/GpL16-k0 (=100)
